Results on five molecules are retold here after US20230056099 (published 2023).

For this series, the target named is thrombin (human alpha-thrombin) (UniProt P00734;P00734 P00734:328-363,P00734:364-622). The series can be described thus: inhibition; 0.1 nM thrombin, 2 uM fibrinogen, absorbance 350 nm.

B1: TBA (ssDNA)
DNA: GGTTGGTGTGGTTGG
B1 had an IC50 of 1.3 nM.

B2: D1 (ssDNA)
DNA: ATCTCGACTAGTCATAGGGGGCGCGAACATACGCGGTTGGTGTGGTTGGCTGACAATACTCGTGTCTCGGAT
modifications: circular (5' and 3' ends joined)
In the case of B2, inhibition was half-maximal at 0.15 nM (IC50).

B3: D2 (ssDNA)
DNA: ATCTCGACTAGTCATAGGGGGCGCGAACATACGCGGTTGGTGTGGTTGGCTGACAATACTCGT
modifications: circular (5' and 3' ends joined)
B3 gave an IC50 of 0.09 nM. This IC50 is about 1.7-fold lower than that of the molecule before.

B4: D3 (ssDNA)
DNA: ATCTCGACTAGTCATAGGGGGCGCGAACATACGCGGTTGGTGTGGTTGGCTGACAA
modifications: circular (5' and 3' ends joined)
Turning to B4, 0.13 nM corresponded to half-maximal inhibition (IC50). This IC50 and that of the molecule before are within 1.5-fold of each other.

B5: TBCA (ssDNA)
DNA: ATCTCGACTAGTCATAGGGGGCGCGAACATACGCGGTTGGTGTGGTTGGCTGACAATACTCGTTTTTGGTGTCTCGGAT
modifications: circular (5' and 3' ends joined)
B5 returned an IC50 of 0.15 nM. The IC50 values of the last two molecules are within 1.5-fold of each other.

For orientation: IC50 means the point on the concentration scale where inhibition reaches its midpoint. Read a low IC50 as greater potency in that assay.
